Measured values: article PMC3706390

Experiments:
Assay in all cases: EMSA
Details in all cases: 30 mM Tris-HCl pH 8.0, 75 mM KCl, 5 mM MgCl2, 1 mM DTT, 0.04 ug/uL BSA, 10% glycerol, 50 ng/uL yeast tRNA, 30 C 15 min; EMSA gels 0.5X TBE at 4 C; RNase …
[1] = biological target: L30 L35A L35A (rat) (UniProt P62890)
[2] = biological target: L30 K87A K87A (rat) (UniProt P62890)
[3] = biological target: L30 Y89A Y89A (rat) (UniProt P62890)
[4] = biological target: L30 K36A K36A (rat) (UniProt P62890)

PHGPx SECIS 102 nt (REMSA)
binding signal (% of WT binding) [1]: 86 | binding signal (% of WT binding) [2]: 60 | binding signal (% of WT binding) [3]: 32 | binding signal (% of WT binding) [4]: 78
